# Assay results: article PMC12041390, “Nanobody-mediated targeting of Plasmodium falciparum PfPIMMS43 can block malaria transmission in mosquitoes” (Communications Biology, 2025)
# B1: PfPIMMS43 nanobody C12 (VHH)
# VHH: EVQLVESGGGLVQAGGSLRLSCVDSGRTLSSYTMGWFRQAPGKEREFVAAVHYTGRRTYYADSVKGRFTISRDNDKNTVLLQMNSLKPEDTAVYYCAATEPPHSDYSTRLYNYHYWGQGTQVTVSS
# notes: llama VHH; From an immune llama library (Eurogentec, pQ81 phagemid)
# B2: PfPIMMS43 nanobody G9 (VHH)
# VHH: EVQLVESGGGLVQAGGSLRLSCAASEGTFSDYGMGWFRQAPGKEREFVASISWSGGRTGYRSSVKGRFTISRDNAKNTVYLQMNSLKPEDTAVYYCGAMSKYYRGDWSSRVTNYDDWGQGTQVTVSS
# notes: llama VHH; From an immune llama library (Eurogentec, pQ81 phagemid); CDR3 of 20 amino acids
# B3: PfPIMMS43 nanobody E5 (VHH)
# VHH: EVQLVESGGGLVQAGGSLRLSCAASGIHFNFKAMAWYRQAPGKQRELVAAIAPDDDTNYADSVKGRFTISRDNAKNTVYLQMNSLKPEDTAVYYCNTRIRIDYWGQGTQVTVSS
# notes: llama VHH; From an immune llama library (Eurogentec, pQ81 phagemid); CDR2 of 7 and CDR3 of 8 amino acids
# B4: PfPIMMS43 nanobody E2 (VHH)
# VHH: EVQLVESGGGLVQAGGSLRLSCAASGLTFNGDSMGWFRQAPGKEREFVAAIRWNEVAYYADFVKGRFTISRDNAKNTVTLQMNSLKPEDTAVYYCGAGVRAYSYTTRLTSASEYTYWGQGTQVTVSS
# notes: llama VHH; From an immune llama library (Eurogentec, pQ81 phagemid); CDR2 of 7 amino acids
# B5: PfPIMMS43 nanobody A3 (VHH)
# VHH: EVQLVESGGGLVQPGGSLRLSCAASGSIFDKNGMGWFRQPPGRQRELVASITTDGNKHYGDDAKGRFTISRDIAKKTAYLQMNSLKPEDTAVYYCATTRGNYYSKSPPPIYDYYYWGQGTQVTVSS
# notes: as for B4
# B6: PfPIMMS43 nanobody A5 (VHH)
# VHH: EVQLVESGGGLVQAGVSLRLSCAASGRSLSNYAMGWFRQAPGKEREFVASITGSGSSTYYLNSVKGRFIISKDNAKNTVYLQMNSLKPEDTAVYYCAADSTGVARYTNRYDYWGQGTRVTVSS
# notes: as for B1
# B7: PfPIMMS43 nanobody B11 (VHH)
# VHH: EVQLVESGGGLVRAGDSLRLSCAASGTPLSSYTMGWFRQAPGKEREFVAASCWRGGSAYDADSIEGRFTISRDNAKNTVYLQMNSLKPEDTAVYYCAAVFAYICSSYGNRSPSRYGYWGQGTQVTVSS
# notes: as for B1
# B8: PfPIMMS43 nanobody H6 (VHH)
# VHH: EVQLVESGGALVQAGNSLRLSCAASGRTFRSYVMGWFRQAPEKEREFVARIGWSAGSTYYTDSVKGRFTISRDDAKNTVYLQMNSLKPEDTAVYYCAAGRGYSDYDPSVGYGYWGQGTQVTVSS
# notes: as for B1
# B9: PfPIMMS43 nanobody E1 (VHH)
# VHH: EVQLVESGGGLVQAGDSLRLSCAASDSTFSIYVMGWFRQAPGKEREFVAAITGSGGNTNYADSVKGRFTVSRDNAKHTVYLQMNSLKPEDAAVYYCAAGGSYSRSSLNYPYWGQGTQVTVSS
# notes: as for B1
# Molecular target: T1, endogenous PfPIMMS43 produced by P. falciparum NF54 ookinetes (Plasmodium falciparum NF54 (entry 3D7, …, UniProt C6KT40))
# T1 construct: PfPIMMS43 (PSOP25) of Plasmodium falciparum NF54, a 505-amino acid protein with an N-terminal signal peptide and a C-terminal GPI anchor; seen as a ~60 kDa band; GPI-anchored surface protein of ookinetes; also called ~60 kDa PfPIMMS43 protein; PSOP25; source: endogenous, lysate of P. falciparum NF54-infected An. coluzzii midguts, 18 h post blood feeding
# Assay: far-Western, overlay or dot blot; reduced lysates of P. falciparum NF54-infected An. coluzzii midguts (18 h post blood meal) on 10% SDS-PAGE, blotted to PVDF, probed with nanobody, detected with anti-MYC antibody; non-infected blood-fed midguts as control
# Conditions: one partner purified
# T1 sequence (C6KT40 25-505): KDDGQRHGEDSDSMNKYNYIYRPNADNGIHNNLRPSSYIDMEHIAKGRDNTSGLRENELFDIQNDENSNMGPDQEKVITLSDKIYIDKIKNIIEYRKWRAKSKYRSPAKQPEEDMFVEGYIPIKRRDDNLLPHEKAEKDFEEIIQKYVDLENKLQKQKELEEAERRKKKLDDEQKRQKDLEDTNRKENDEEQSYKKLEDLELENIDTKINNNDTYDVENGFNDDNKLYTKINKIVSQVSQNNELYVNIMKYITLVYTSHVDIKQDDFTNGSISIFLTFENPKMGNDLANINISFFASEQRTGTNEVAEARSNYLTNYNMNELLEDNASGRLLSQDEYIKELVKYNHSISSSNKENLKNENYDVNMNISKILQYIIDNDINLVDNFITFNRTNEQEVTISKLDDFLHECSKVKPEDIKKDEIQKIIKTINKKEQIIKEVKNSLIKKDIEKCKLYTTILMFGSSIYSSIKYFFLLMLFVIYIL
row,Binder,binding result
1,B1,binds

# Molecular target: T2, recombinant Thioredoxin-His-tagged PfPIMMS43 (amino acids 26-481), full-length (FL) recombinant PfPIMMS43 (Plasmodium falciparum, 3D7 entry (NF54 …, UniProt C6KT40))
# T2 construct: PfPIMMS43 (PSOP25) of Plasmodium falciparum, a 505-amino acid protein; E. coli codon-optimised; the methods give 25-481; pET-32b vector; Results give 26-481, methods 25-481; also called TRX-His-PfPIMMS43; PSOP25; not shown: Thioredoxin (TRX), N-terminal, kept; His6, N-terminal, kept; His6, C-terminal, kept
# Assay: ELISA; dose response ELISA; MaxiSorp plates coated with 2 ug/mL recombinant PfPIMMS43 in PBS overnight, blocked with 4% skimmed milk; VHH from 1000 nM in serial 1:10 dilutions, 1 h at room temperature; detected with rabbit anti-VHH and donkey anti-rabbit HRP, OPD, 490 nm
# Conditions: both partners purified
# T2 sequence (C6KT40 26-481): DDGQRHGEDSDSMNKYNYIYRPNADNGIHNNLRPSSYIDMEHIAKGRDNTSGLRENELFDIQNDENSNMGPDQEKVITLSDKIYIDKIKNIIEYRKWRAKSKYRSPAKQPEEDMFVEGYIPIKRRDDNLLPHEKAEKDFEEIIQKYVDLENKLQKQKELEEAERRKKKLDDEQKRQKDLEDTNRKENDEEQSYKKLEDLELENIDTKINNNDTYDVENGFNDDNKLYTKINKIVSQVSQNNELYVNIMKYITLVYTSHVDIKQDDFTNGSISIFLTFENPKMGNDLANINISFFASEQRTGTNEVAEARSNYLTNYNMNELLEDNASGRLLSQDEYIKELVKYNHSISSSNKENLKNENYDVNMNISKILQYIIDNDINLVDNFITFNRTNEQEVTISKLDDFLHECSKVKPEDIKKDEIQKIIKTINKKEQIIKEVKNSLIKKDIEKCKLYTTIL
row,Binder,binding affinity (dose response ELISA) [nM]
1,B2,3
2,B3,5
3,B1,6
4,B4,8
5,B5,> 50
6,B6,> 50
7,B7,> 50
8,B8,> 50
9,B9,> 50
